Data reported in publication PMC3124419, “Elucidating the domain architecture and functions of non-core RAG1: The capacity of a non-core zinc-binding domain to function in nuclear import and nucleic acid binding” (BMC Biochemistry, 2011).
Residue numbers refer to the chain shown, from its start.

Experiments:
[1] = molecular target: the molecule itself; assay: SEC-MALS; MALLS-SEC of MBP fusion proteins, 20 mL Superdex 200, starting concentration 3-10 μM, GFB buffer (20 mM Tris pH 8.0, 0.2 M NaCl, 50 μM ZnCl2, 5 mM βME)
[2] = molecular target: T1, MBP-CND (RAG1 central non-core domain) (murine, UniProt P15919 87-217); assay: EMSA; 5 mM Mg2+; range covers EMSA and anisotropy; EMSA: 10 mM Tris pH 8.0, 5 mM MgCl2, 2 mM DTT, 6% glycerol, 100 mM NaCl, 25 C, 1 nM 32P-DNA; 3.5/8% discontinuous nondenaturing gel; conditions: protein: recombinant; tags: N-terminal MBP; blunt
T1 sequence: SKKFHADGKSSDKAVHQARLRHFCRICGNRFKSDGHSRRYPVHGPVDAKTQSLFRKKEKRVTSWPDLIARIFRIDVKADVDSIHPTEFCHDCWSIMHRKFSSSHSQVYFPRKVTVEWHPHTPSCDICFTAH

[3] = molecular target: T2, MBP-bZDD (murine, UniProt P15919 218-380); assay: EMSA; 5 mM Mg2+; EMSA: 10 mM Tris pH 8.0, 5 mM MgCl2, 2 mM DTT, 6% glycerol, 100 mM NaCl, 25 C, 1 nM 32P-DNA; 3.5/8% discontinuous nondenaturing gel; conditions: protein: recombinant; tags: N-terminal MBP; chain copies: 2; blunt
T2 sequence: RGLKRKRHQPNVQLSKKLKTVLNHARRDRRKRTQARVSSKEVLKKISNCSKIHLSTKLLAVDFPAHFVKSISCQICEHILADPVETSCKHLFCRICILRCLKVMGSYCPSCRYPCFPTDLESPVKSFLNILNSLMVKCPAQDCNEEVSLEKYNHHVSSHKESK

[4] = molecular target: T1, MBP-CND (RAG1 central non-core domain); assay: fluorescence anisotropy; range covers EMSA and anisotropy; EMSA: 10 mM Tris pH 8.0, 5 mM MgCl2, 2 mM DTT, 6% glycerol, 100 mM NaCl, 25 C, 1 nM 32P-DNA; 3.5/8% discontinuous nondenaturing gel; conditions: protein: recombinant; tags: N-terminal MBP; blunt
[5] = molecular target: T1, MBP-CND (RAG1 central non-core domain); assay: competition; 1.5 uM MBP-CND, 1 nM labeled WT 12-RSS; EMSA: 10 mM Tris pH 8.0, 5 mM MgCl2, 2 mM DTT, 6% glycerol, 100 mM NaCl, 25 C, 1 nM 32P-DNA; 3.5/8% discontinuous nondenaturing gel; conditions: protein: recombinant; tags: N-terminal MBP; blunt
[6] = molecular target: T3, MBP-CND+bZDD (murine, UniProt P15919 87-380); assay: EMSA; 5 mM Mg2+; EMSA: 10 mM Tris pH 8.0, 5 mM MgCl2, 2 mM DTT, 6% glycerol, 100 mM NaCl, 25 C, 1 nM 32P-DNA; 3.5/8% discontinuous nondenaturing gel; conditions: protein: recombinant; tags: N-terminal MBP; chain copies: 2; label: 5' 32P; hairpin, fully complementary
T3 sequence: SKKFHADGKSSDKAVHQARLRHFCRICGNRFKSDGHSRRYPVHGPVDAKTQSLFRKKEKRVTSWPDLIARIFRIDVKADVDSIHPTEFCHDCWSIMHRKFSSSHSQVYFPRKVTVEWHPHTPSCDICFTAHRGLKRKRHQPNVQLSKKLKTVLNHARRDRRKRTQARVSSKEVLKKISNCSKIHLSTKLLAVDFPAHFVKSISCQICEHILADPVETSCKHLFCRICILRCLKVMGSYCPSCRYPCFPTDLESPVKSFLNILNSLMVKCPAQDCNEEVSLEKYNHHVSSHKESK

[7] = molecular target: T1, MBP-CND (RAG1 central non-core domain); assay: as above; conditions: protein: recombinant; tags: N-terminal MBP; label: 5' 32P; hairpin, fully complementary

B1: MBP-bZDD (domain or fragment, murine, UniProt P15919 218-380, looked up)
chain: T2 sequence
notes: RAG1, murine, residues 218-380 (basic region plus zinc dimerization domain, ZDD 265-380); Four zinc ions per monomer; Predicted dimeric mass 123,634 Da; also called MBP-RAG1(218-380); basic-zinc dimerization domain fused to MBP; source: E. coli BL21, purified (amylose resin, SEC); not shown: MBP, N-terminal, kept
stoichiometry N [1]: 2

B2: WT 12-RSS (dsDNA)
DNA 1: GATATGGCTCGTCTTACACAGTGATATAGACCTTAACAAAAACCTCCAATCGAGCGGAG
DNA 2: CTCCGCTCGATTGGAGGTTTTTGTTAAGGTCTATATCACTGTGTAAGACGAGCCATATC
Kd [2]: 1550 nM
Kd [3]: ~1730 nM

B3: WT 12-RSS, Oregon Green (dsDNA)
DNA 1: B2 DNA 1
DNA 2: B2 DNA 2
Kd [4]: 1550 nM

B4: mutant heptamer (MH) 12-RSS (dsDNA)
DNA 1: B2 DNA 1 with C17G, C19G, G21A, T22G, G23C
DNA 2: B2 DNA 2 with C37G, A38C, C39T, G41C, G43C
binding result [5]: binds

B5: mutant nonamer (MN) 12-RSS (dsDNA)
DNA 1: GATATGGCTCGTCTTACACAGTGATATAGACCTTAAGGCTCTGATCCAATCGAGCGGAG
DNA 2: CTCCGCTCGATTGGATCAGAGCCTTAAGGTCTATATCACTGTGTAAGACGAGCCATATC
binding result [5]: binds

GATATGGCTCGTCTTATAAGACGAGCCATATC (structured_DNA) [32 nt hairpin coding flank]
binding result [6]: binds
binding result [7]: binds
